Paper PMC7367873, “Dissecting the sequence determinants for dephosphorylation by the catalytic subunits of phosphatases PP1 and PP2A” (Nature Communications, 2020)
One block for each molecule: values may come before it.

Key:
GFP-14-3-3β = GFP-14-3-3β co-IP with LC-MS/MS, untreated GFP-14-3-3β versus GFP control (14-3-3 interactome); format: binding, human; conditions: pairwise comparison untreated vs GFP
[1] = system: GFP-14-3-3β and its binding proteins; test: GFP-14-3-3β co-IP with LC-MS/MS label-free quantification, untreated versus PP1c-treated; set-up: species or system human; conditions: pairwise comparison PP1 vs untreated

Difference (log2), PP1 vs untreated [1]: -0.131 log2
B1: MARS (protein, UniProt P56192 1-900, looked up)
Methionine--tRNA ligase, …: MRLFVSDGVPGCLPVLAAAGRARGRAEVLISTVGPEDCVVPFLTRPKVPVLQLDSGNYLFSTSAICRYFFLLSGWEQDDLTNQWLEWEATELQPALSAALYYLVVQGKKGEDVLGSVRRALTHIDHSLSRQNCPFLAGETESLADIVLWGALYPLLQDPAYLPEELSALHSWFQTLSTQEPCQRAAETVLKQQGVLALRPYLQKQPQPSPAEGRAVTNEPEEEELATLSEEEIAMAVTAWEKGLESLPPLRPQQNPVLPVAGERNVLITSALPYVNNVPHLGNIIGCVLSADVFARYSRLRQWNTLYLCGTDEYGTATETKALEEGLTPQEICDKYHIIHADIYRWFNISFDIFGRTTTPQQTKITQDIFQQLLKRGFVLQDTVEQLRCEHCARFLADRFVEGVCPFCGYEEARGDQCDKCGKLINAVELKKPQCKVCRSCPVVQSSQHLFLDLPKLEKRLEEWLGRTLPGSDWTPNAQFITRSWLRDGLKPRCITRDLKWGTPVPLEGFEDKVFYVWFDATIGYLSITANYTDQWERWWKNPEQVDLYQFMAKDNVPFHSLVFPCSALGAEDNYTLVSHLIATEYLNYEDGKFSKSRGVGVFGDMAQDTGIPADIWRFYLLYIRPEGQDSAFSWTDLLLKNNSELLNNLGNFINRAGMFVSKFFGGYVPEMVLTPDDQRLLAHVTLELQHYHQLLEKVRIRDALRSILTISRHGNQYIQVNEPWKRIKGSEADRQRAGTVTGLAVNIAALLSVMLQPYMPTVSATIQAQLQLPPPACSILLTNFLCTLPAGHQIGTVSPLFQKLENDQIESLRQRFGGGQAKTSPKPAVVETVTTAKPQQIQALMDEVTKQGNIVRELKAQKADKNEVAAEVAKLLDLKKQLAVAEGKPPEAPKGKKKK
Difference (log2), untreated vs GFP (GFP-14-3-3β): 0.1917 log2

Difference (log2), PP1 vs untreated [1]: -0.1292 log2
B2: RBM14 (protein, UniProt Q96PK6 1-669, looked up)
RNA-binding protein 14: MKIFVGNVDGADTTPEELAALFAPYGTVMSCAVMKQFAFVHMRENAGALRAIEALHGHELRPGRALVVEMSRPRPLNTWKIFVGNVSAACTSQELRSLFERRGRVIECDVVKDYAFVHMEKEADAKAAIAQLNGKEVKGKRINVELSTKGQKKGPGLAVQSGDKTKKPGAGDTAFPGTGGFSATFDYQQAFGNSTGGFDGQARQPTPPFFGRDRSPLRRSPPRASYVAPLTAQPATYRAQPSVSLGAAYRAQPSASLGVGYRTQPMTAQAASYRAQPSVSLGAPYRGQLASPSSQSAAASSLGPYGGAQPSASALSSYGGQAAAASSLNSYGAQGSSLASYGNQPSSYGAQAASSYGVRAAASSYNTQGAASSLGSYGAQAASYGAQSAASSLAYGAQAASYNAQPSASYNAQSAPYAAQQAASYSSQPAAYVAQPATAAAYASQPAAYAAQATTPMAGSYGAQPVVQTQLNSYGAQASMGLSGSYGAQSAAAATGSYGAAAAYGAQPSATLAAPYRTQSSASLAASYAAQQHPQAAASYRGQPGNAYDGAGQPSAAYLSMSQGAVANANSTPPPYERTRLSPPRASYDDPYKKAVAMSKRYGSDRRLAELSDYRRLSESQLSFRRSPTKSSLDYRRLPDAHSDYARYSGSYNDYLRAAQMHSGYQRRM
Difference (log2), untreated vs GFP (GFP-14-3-3β): 0.5797 log2
